Assay results from patent US20230407373A1 (priority 2020, published 2023).
Like-named read-outs stand apart in the source and are kept apart here.

B1: MOV10: host protein, UniProt Q9HCE1 (protein, UniProt Q9HCE1 1-1003, looked up)
Helicase MOV-10: MPSKFSCRQLREAGQCFESFLVVRGLDMETDRERLRTIYNRDFKISFGTPAPGFSSMLYGMKIANLAYVTKTRVRFFRLDRWADVRFPEKRRMKLGSDISKHHKSLLAKIFYDRAEYLHGKHGVDVEVQGPHEARDGQLLIRLDLNRKEVLTLRLRNGGTQSVTLTHLFPLCRTPQFAFYNEDQELPCPLGPGECYELHVHCKTSFVGYFPATVLWELLGPGESGSEGAGTFYIARFLAAVAHSPLAAQLKPMTPFKRTRITGNPVVTNRIEEGERPDRAKGYDLELSMALGTYYPPPRLRQLLPMLLQGTSIFTAPKEIAEIKAQLETALKWRNYEVKLRLLLHLEELQMEHDIRHYDLESVPMTWDPVDQNPRLLTLEVPGVTESRPSVLRGDHLFALLSSETHQEDPITYKGFVHKVELDRVKLSFSMSLLSRFVDGLTFKVNFTFNRQPLRVQHRALELTGRWLLWPMLFPVAPRDVPLLPSDVKLKLYDRSLESNPEQLQAMRHIVTGTTRPAPYIIFGPPGTGKTVTLVEAIKQVVKHLPKAHILACAPSNSGADLLCQRLRVHLPSSIYRLLAPSRDIRMVPEDIKPCCNWDAKKGEYVFPAKKKLQEYRVLITTLITAGRLVSAQFPIDHFTHIFIDEAGHCMEPESLVAIAGLMEVKETGDPGGQLVLAGDPRQLGPVLRSPLTQKHGLGYSLLERLLTYNSLYKKGPDGYDPQFITKLLRNYRSHPTILDIPNQLYYEGELQACADVVDRERFCRWAGLPRQGFPIIFHGVMGKDEREGNSPSFFNPEEAATVTSYLKLLLAPSSKKGKARLSPRSVGVISPYRKQVEKIRYCITKLDRELRGLDDIKDLKVGSVEEFQGQERSVILISTVRSSQSFVQLDLDFNLGFLKNPKRFNVAVTRAKALLIIVGNPLLLGHDPDWKVFLEFCKENGGYTGCPFPAKLDLQQGQNLLQGLSKLSPSTSGPHSHDYLPQEREGEGGLSLQVEPEWRNEL
B2: MATR3: host protein, UniProt P43243 (protein, UniProt P43243 2-847, looked up)
Matrin-3: SKSFQQSSLSRDSQGHGRDLSAAGIGLLAAATQSLSMPASLGRMNQGTARLASLMNLGMSSSLNQQGAHSALSSASTSSHNLQSIFNIGSRGPLPLSSQHRGDADQASNILASFGLSARDLDELSRYPEDKITPENLPQILLQLKRRRTEEGPTLSYGRDGRSATREPPYRVPRDDWEEKRHFRRDSFDDRGPSLNPVLDYDHGSRSQESGYYDRMDYEDDRLRDGERCRDDSFFGETSHNYHKFDSEYERMGRGPGPLQERSLFEKKRGAPPSSNIEDFHGLLPKGYPHLCSICDLPVHSNKEWSQHINGASHSRRCQLLLEIYPEWNPDNDTGHTMGDPFMLQQSTNPAPGILGPPPPSFHLGGPAVGPRGNLGAGNGNLQGPRHMQKGRVETSRVVHIMDFQRGKNLRYQLLQLVEPFGVISNHLILNKINEAFIEMATTEDAQAAVDYYTTTPALVFGKPVRVHLSQKYKRIKKPEGKPDQKFDQKQELGRVIHLSNLPHSGYSDSAVLKLAEPYGKIKNYILMRMKSQAFIEMETREDAMAMVDHCLKKALWFQGRCVKVDLSEKYKKLVLRIPNRGIDLLKKDKSRKRSYSPDGKESPSDKKSKTDGSQKTESSTEGKEQEEKSGEDGEKDTKDDQTEQEPNMLLESEDELLVDEEEAAALLESGSSVGDETDLANLGDVASDGKKEPSDKAVKKDGSASAAAKKKLKKVDKIEELDQENEAALENGIKNEENTEPGAESSENADDPNKDTSENADGQSDENKDDYTIPDEYRIGPYQPNVPVGIDYVIPKTGFYCKLCSLFYTNEEVAKNTHCSSLPHYQKLKKFLNKLAEERRQKKET
B3: FAM120A: host protein, UniProt Q9NZB2 (protein, UniProt Q9NZB2 1-1118, looked up)
Constitutive coactivator of …: MGVQGFQDYIEKHCPSAVVPVELQKLARGSLVGGGRQRPPQTPLRLLVDADNCLHRLYGGFYTDWVSGGQWNHMLGYLAALAKACFGGNIELFVFFNGALEKARLHEWVKRQGNERQTAQQIVSHVQNKGTPPPKVWFLPPVCMAHCIRLALIRFHVKVAQSIEDHHQEVIGFCRENGFHGLVAYDSDYALCNIPYYFSAHALKLSRNGKSLTTSQYLMHEVAKQLDLNPNRFPIFAALLGNHILPDEDLASFHWSLLGPEHPLASLKVRAHQLVLPPCDVVIKAVADYVRNIQDTSDLDAIAKDVFQHSQSRTDDKVIRFKRAIGYYSATSKPMSFHPPHYLAARPGPFGMPGMVPPHVPPQMLNIPQTSLQAKPVAPQVPSPGGAPGQGPYPYSLSEPAPLTLDTSGKNLTEQNSYSNIPHEGKHTPLYERSSPINPAQSGSPNHVDSAYFPGSSTSSSSDNDEGSGGATNHISGNKIGWEKTGSHSEPQARGDPGDQTKAEGSSTASSGSQLAEGKGSQMGTVQPIPCLLSMPTRNHMDITTPPLPPVAPEVLRVAEHRHKKGLMYPYIFHVLTKGEIKIAVSIEDEANKDLPPAALLYRPVRQYVYGVLFSLAESRKKTERLAFRKNRLPPEFSPVIIKEWAAYKGKSPQTPELVEALAFREWTCPNLKRLWLGKAVEDKNRRMRAFLACMRSDTPAMLNPANVPTHLMVLCCVLRYMVQWPGARILRRQELDAFLAQALSPKLYEPDQLQELKIENLDPRGIQLSALFMSGVDMALFANDACGQPIPWEHCCPWMYFDGKLFQSKLLKASREKTPLIDLCDGQADQAAKVEKMRQSVLEGLSFSRQSHTLPFPPPPALPFYPASAYPRHFGPVPPSQGRGRGFAGVCGFGGPYGETVATGPYRAFRVAAASGHCGAFSGSDSSRTSKSQGGVQPIPSQGGKLEIAGTVVGHWAGSRRGRGGRGPFPLQVVSVGGPARGRPRGVISTPVIRTFGRGGRYYGRGYKNQAAIQGRPPYAASAEEVAKELKSKSGESKSSAMSSDGSLAENGVMAEEKPAPQMNGSTGDARAPSHSESALNNDSKTCNTNPHLNALSTDSACRREAALEAAVLNKEE
B4: NONO: host protein, UniProt Q15233 (protein, UniProt Q15233 1-471, looked up)
Non-POU domain-containing …: MQSNKTFNLEKQNHTPRKHHQHHHQQQHHQQQQQQPPPPPIPANGQQASSQNEGLTIDLKNFRKPGEKTFTQRSRLFVGNLPPDITEEEMRKLFEKYGKAGEVFIHKDKGFGFIRLETRTLAEIAKVELDNMPLRGKQLRVRFACHSASLTVRNLPQYVSNELLEEAFSVFGQVERAVVIVDDRGRPSGKGIVEFSGKPAARKALDRCSEGSFLLTTFPRPVTVEPMDQLDDEEGLPEKLVIKNQQFHKEREQPPRFAQPGSFEYEYAMRWKALIEMEKQQQDQVDRNIKEAREKLEMEMEAARHEHQVMLMRQDLMRRQEELRRMEELHNQEVQKRKQLELRQEEERRRREEEMRRQQEEMMRRQQEGFKGTFPDAREQEIRMGQMAMGGAMGINNRGAMPPAPVPAGTPAPPGPATMMPDGTLGLTPPTTERFGQAATMEGIGAIGGTPPAFNRAAPGAEFAPNKRRRY

Legend:
Assay type in all cases: binding
SARS-CoV-2 gRNA = conditions: for target (unweighted spectral count of the protein in the RNP capture): LC-MS/MS, Probe I sample (first 199 lines of Table 2)
gRNA of HCoV-OC43 = conditions: for target (spectral count) / background (spectral count): type g_36_m, 36 hpi, Probe I; for target (spectral count): HCoV-OC43-infected HCT-8 cells; for background (spectral count): uninfected-probe control; for target (spectral count, OC43 Probe I RNP capture) / background (spectral count, no-probe control): type n_48_v: 48 hours post-infection; for target (spectral count, OC43 Probe I RNP capture): infected cells, unweighted spectral count; for background (spectral count, no-probe control): no-probe control on infected cells
[1] = tested on: SARS-CoV-2 gRNA and sgRNAs; conditions: for background (unweighted spectral count in control): no-probe control pull-down, used as background for Probe II
HCoV-OC43 gRNA and sgRNA = conditions: for target (unweighted spectral count, OC43 Probe II capture) / target (spectral count) / background (spectral count): 36 hpi; for target (unweighted spectral count, OC43 Probe II capture): type n_36_v, FDR<10%; for target (unweighted spectral count, OC43 Probe II capture) / target (unweighted spectral count): tested against no-probe control; for target (unweighted spectral count): OC43 Probe II, infected cells; for target (unweighted spectral count, OC43 Probe II) / background (unweighted spectral count, no-probe control): type n_48_v, 48 hpi; for target (unweighted spectral count, OC43 Probe II): OC43 Probe II capture on infected cells; for background (unweighted spectral count, no-probe control): no-probe control on infected cells; for target (spectral count) / background (spectral count): type s_36_m, Probe II; for target (spectral count): HCoV-OC43-infected HCT-8 cells; for background (spectral count): uninfected-probe control

Row | Molecule | enrichment in SARS-CoV-2 Probe I RNP capture (SARS-CoV-2 gRNA) | target (unweighted spectral count of the protein in the RNP capture) (SARS-CoV-2 gRNA) | target (spectral count) (gRNA of HCoV-OC43) | background (spectral count) (gRNA of HCoV-OC43) | target (spectral count, OC43 Probe I RNP capture) (gRNA of HCoV-OC43) | background (spectral count, no-probe control) (gRNA of HCoV-OC43) | enrichment in SARS-CoV-2 Probe II RNP capture [1] | background (unweighted spectral count in control) [1] | target (unweighted spectral count, OC43 Probe II capture) (HCoV-OC43 gRNA and sgRNA) | target (unweighted spectral count) (HCoV-OC43 gRNA and sgRNA; 24 hpi (type n_24_v)) | target (unweighted spectral count, OC43 Probe II) (HCoV-OC43 gRNA and sgRNA) | background (unweighted spectral count, no-probe control) (HCoV-OC43 gRNA and sgRNA) | target (spectral count) (HCoV-OC43 gRNA and sgRNA) | background (spectral count) (HCoV-OC43 gRNA and sgRNA) | target (unweighted spectral count) (HCoV-OC43 gRNA and sgRNA; 12 hpi (type n_12_v))
1 | B1 | found in the SARS-CoV-2 experiments | 16 | 26 | 1 | 25 | 1 | found in the SARS-CoV-2 experiments | 1 | 24 | 35 | 37 | 1 | 24 | 1 | 
2 | B2 | found in the SARS-CoV-2 experiments | 56 | 57 | 4 | 41 | 3 | found in the SARS-CoV-2 experiments |  | 39 | 20 | 39 | 3 | 39 | 4 | 11
3 | B3 | found in the SARS-CoV-2 experiments |  | 23 | 2 | 29 | 2 | found in the SARS-CoV-2 experiments |  | 18 | 18 | 33 | 2 | 19 | 2 | 4
4 | B4 | found in the SARS-CoV-2 experiments |  | 28 | 6 | 36 | 3 | found in the SARS-CoV-2 experiments | 1 | 23 | 14 | 31 | 3 | 23 | 4 | 4
